Six molecules from patent publication US20090197330A1 (BIOMEDICS, published 2009) can be followed below.

Assay [1] addresses T1, human CD20 antigen (human, UniProt P11836 1-297).
T1 construct: whole, on cells; also called CD20/CHO cells; CD20 on Raji cells
T1 sequence (looked up): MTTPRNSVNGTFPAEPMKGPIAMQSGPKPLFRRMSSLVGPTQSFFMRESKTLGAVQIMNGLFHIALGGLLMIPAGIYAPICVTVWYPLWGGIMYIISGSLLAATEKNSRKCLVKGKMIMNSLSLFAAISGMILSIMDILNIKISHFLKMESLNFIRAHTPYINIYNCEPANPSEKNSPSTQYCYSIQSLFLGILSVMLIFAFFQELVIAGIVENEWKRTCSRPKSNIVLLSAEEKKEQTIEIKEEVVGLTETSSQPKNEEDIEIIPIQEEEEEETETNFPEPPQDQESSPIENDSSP
Put plainly: CD20/CHO cell-ELISA, antibody at 1 ng/ml. The text has this: (§1) The prepared 8 kinds of chimeric anti-CD20 monoclonal antibodies were examined for reactivity to the human CD20 antigen by the CD20/CHO cell-ELISA. Rituximab (c2B8) was used as a positive control. The values measured in the cell-ELISA (A492) reflect intensity of the binding property.
(In an ELISA, binding on a coated surface is turned into a signal by an enzyme label.)

Assay [2] has as its target T1, human CD20 antigen. Put plainly: CD20/CHO cell-ELISA, antibody at 100 ng/ml.
Excerpt: as §1

The target of assay [3] is T1, human CD20 antigen. Put plainly: CD20/CHO cell-ELISA, antibody at 10 ng/ml.
Excerpt: as §1

The target in assay [4] is T1, human CD20 antigen. Put plainly: CD20/CHO cell-ELISA, antibody at 3 ng/ml.
Excerpt: as §1

Assay [5] deals with T1, human CD20 antigen. Put plainly: CD20/CHO cell-ELISA, antibody at 32 ng/ml.
Excerpt: as §1

B1: chimeric anti-CD20 monoclonal antibody c1K0924 (antibody, V domains shown)
VH: QVQLQQPGAELVKPGASVKMSCKASGYTFTSYNIHWVKQTPGQGLEWIGAIYPGNGDTSYNQKFKGKATLTSDKSSSTAYMQLSSLTSEDSAVYYCARMSTMITGFDYWGQGTTLTVSS
VL: QIVLSQSPAILSASPGEKVTMTCRASSSVSYMHWYQQRPGSSPKPWIYATSNLASGVPARFSGSGSGTSYYFTISRVEAEDAATYYCQQWNSNPPTHGGGTKLEIK
notes: Murine variable regions fused to human immunoglobulin H chain and L chain (kappa) constant regions of vector pNOW-Ab
Take B1: the A492 was determined as 0.094 A492 in assay [1]; 1.42 A492 in assay [2]; 0.391 A492 in assay [3]; 0.186 A492 in assay [4]; 0.724 A492 in assay [5].

B2: chimeric anti-CD20 monoclonal antibody c1K1712 (antibody, V domains shown)
VH: QVQLQQPGAELVKPGASVKMSCKASGFTFTSYNLHWVKQTPGQGLEWIGAIYPGSGDTSYNQQFKGKATLTADKSSNTAYMQLNSLTSEDSAVYCCARSAMISTGNWYFDYWGQGTTLTVSS
VL: QIVLSQSPAILSASPGEKVTMTCRASSSVSYMDWYQQKPGSSPKPWIYATSNLASGVPARFSGSGSGTSYSLTISRVEAEDTATYYCQQWTFNPPTFGSGTKLEIK
notes: as for B1
Regarding B2, the A492 in assay [1] was 0.145 A492; in assay [2] it was 2.29 A492; in assay [3] it was 0.793 A492; in assay [4] it was 0.359 A492; in assay [5], 1.68 A492.

B3: chimeric anti-CD20 monoclonal antibody c1K1736 (antibody, V domains shown)
VH: QVQLQQPGAELVKPGASVKMSCKASGYTFTTYNLHWVKQTPGQGLEWIGGIYPGNGDTSYNQKFKVKATLTADKSSNTAYMQLSSLTSEDSAVYYCARWIYYGNYEGTLDYWGQGTSVTVSS
VL: QIVLSQSPAILSSSPGEKVTMTCRASSSVSYMLWYQQKPGSSPEPWIYATSNLASGVPARFSGGGSGTSYSLTISRVEAEDAATYYCQQWTFNPPTFGGGTKLEIK
notes: as for B1
In the case of B3, the A492 in assay [1] worked out at 0.122 A492; in assay [2], 2.43 A492; in assay [3], 0.748 A492; in assay [4], 0.32 A492; in assay [5] it was 1.55 A492.

B4: chimeric anti-CD20 monoclonal antibody c1K1402 (antibody, V domains shown)
VH: QVQLQQPGAELVKPGASVKMSCKASGFTFTSYNMHWVKQTPGQGLEWIGGIYPGNGDTSYNQKFKGKATLTADKSSSTAYMQLSSLTSEDSAVYYCARFYYYGSMGAMDYWGQGTSVTVSS
VL: QIVLSQSPAILSASPGEKVTMTCRASSSVSYMHWYQQKPGSSPKPWIYATSNLASGVPARFSGSGSGTSYSLTITRVEAEDAATYYCQQWTFNPPTFGAGTKLELK
notes: as for B1
With B4, the A492 in assay [1] was 0.116 A492; in assay [2] it was 2.45 A492; in assay [3] it was 0.737 A492; in assay [4], 0.349 A492; in assay [5], 1.62 A492.

B5: chimeric anti-CD20 monoclonal antibody c1K1228 (antibody, V domains shown)
VH: QVQLQQPGAELVKPGASVKVSCKASGFTFTSYNLHWVKQTPGQGLVWIGAIYPGNGDTSYNQKFRGKATLTADISSSTAYMQLSSLTSEDSAVYYCARYYYGYDAMDYWGQGTSVTVSS
VL: EIILTQSPTTMAASPGEKITITCSASSSISSYYLRWYQQKPGFSPKVLIYRTSNLASGVPARFSGSGSGTSYSLTIGTMEAEDVATYYCQQGNTVPLTFGSGTKLEIK
notes: as for B1
For B5, the A492 was found to be 0.12 A492 in assay [1]; 2.23 A492 in assay [2]; 0.701 A492 in assay [3]; 0.289 A492 in assay [4]; 1.58 A492 in assay [5].

B6: chimeric anti-CD20 monoclonal antibody c1K1422 (antibody, V domains shown)
VH: QVQLQQPGAELVKPGASVKMSCRASGYTFTNYNMHWIKQTPGQGLEWIGAIYPGSGDTSYNRKFKGKATLTADTSSSTAYMQFSSLTSADSAVYYCARFTYYYGGTYGAMDYWGQGTSVTVSL
VL: QIVLTQSPPIMSASLGEEITLTCSASSRVSYMLWYQQKSGTSPKLLIYSTSNLASGVPSRFSGSGSGTFYSLTISSVEAEDAADYYCHQWTSNPCTFGGGTKLEIK
notes: as for B1
For B6, the A492 in assay [1] amounted to 0.077 A492; in assay [2], 1.92 A492; in assay [3] it was 0.357 A492; in assay [4], 0.151 A492; in assay [5], 0.912 A492.
